Measurements reported in paper PMC6657065.
Values belong to the substance of their own block, whether it stands above or below them.

How the values were obtained:
Assay in all cases: SEC; Superdex-200 on FPLC after TEV removal of the MBP tag; 20 mM NaH2PO4 pH 7.0, 0.3 M NaCl, 1 mM TCEP, 10% glycerol, 0.005% FC-16; 4 °C; mass by regression against gel filtration standards (Bio-Rad); self-association, oligomer size
[1] = biological target: Bambusa oldhamii cellulose synthase BoCesA1 (Bambusa oldhamii)
[2] = biological target: Bambusa oldhamii cellulose synthase BoCesA4 (Bambusa oldhamii)
[3] = biological target: Bambusa oldhamii cellulose synthase BoCesA2 (Bambusa oldhamii)
[4] = biological target: Bambusa oldhamii cellulose synthase BoCesA3 (Bambusa oldhamii)
[5] = biological target: Bambusa oldhamii cellulose synthase BoCesA7 (Bambusa oldhamii)
[6] = biological target: Bambusa oldhamii cellulose synthase BoCesA5 (Bambusa oldhamii)

Substance: Bambusa oldhamii cellulose synthase BoCesA1 (enzyme)
stoichiometry N [1]: 6

Substance: Bambusa oldhamii cellulose synthase BoCesA7 (enzyme)
stoichiometry N [5]: 6

Substance: Bambusa oldhamii cellulose synthase BoCesA5 (enzyme)
stoichiometry N [6]: 6

The next lines start with the values.

stoichiometry N [2]: 6
Substance: Bambusa oldhamii cellulose synthase BoCesA4 (enzyme)

stoichiometry N [3]: 6
Substance: Bambusa oldhamii cellulose synthase BoCesA2 (enzyme)

stoichiometry N [4]: 6
Substance: Bambusa oldhamii cellulose synthase BoCesA3 (enzyme)
